Data on two substances can be found in patent US7244577.

The target in this test is low-density lipoprotein (LDL) particles, 125I-labelled. The test can be described thus: cell-based or functional assay.

“LDL-receptor (from UniProt P01130 22-860) (receptor; the values are: fold increase in LDL uptake)” returned an uptake of 125I-LDL by FH fibroblasts infected with LDL-receptor adenovirus of 20 fold. As to “human LDL-receptor related protein-5 (LRP5), isoform 1 (from UniProt O75197 32-1615)”, the uptake of 125I-LDL by FH fibroblasts infected with LRP5 adenovirus amounted to 60 % increase.
